This passage reports Kd results from publication PMC12923992 (Cell metabolism, 2026).

The Kd is the free concentration of one partner at which half of the binding sites on the other are occupied at equilibrium, for simple one-to-one binding. High values mean lower affinity, low ones higher affinity.

For the test, the target named is T1, N-terminal cytosolic domain of Band 3 (residues 1–395) (human, UniProt P02730 1-395).
T1 sequence (looked up): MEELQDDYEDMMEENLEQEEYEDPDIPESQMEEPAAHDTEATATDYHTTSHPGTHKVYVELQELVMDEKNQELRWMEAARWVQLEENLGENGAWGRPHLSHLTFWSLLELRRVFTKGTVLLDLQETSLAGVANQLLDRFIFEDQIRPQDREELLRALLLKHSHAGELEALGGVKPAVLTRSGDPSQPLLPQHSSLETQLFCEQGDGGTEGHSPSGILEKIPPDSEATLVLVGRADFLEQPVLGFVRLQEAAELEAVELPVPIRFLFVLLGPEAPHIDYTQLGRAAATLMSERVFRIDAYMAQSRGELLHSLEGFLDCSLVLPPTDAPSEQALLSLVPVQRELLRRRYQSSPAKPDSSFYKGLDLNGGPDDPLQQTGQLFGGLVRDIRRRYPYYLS
The test can be described thus: ITC. (In general: In ITC the heat of successive injections is recorded.)

B1: recombinantly-expressed human GAPDH (enzyme)
chain: not shown
Molecule B1 yielded a Kd of 1180 nM.
